Test system: HEK293 cells
Format: cell-based, human
Details: luminescence from secreted Gluc in supernatant 24 hours after transfection of HEK293 cells; circular RNA encoding Gluc with the named IRES (UTR truncated to 675 nt)

Molecule | Expression
A115-675 (nucleic acid) DNA: ACCTTTGTGCGCCTGTTTTATACCCCCCCCAACCTCGAAACTTAGAAGTAAAGCAAACCCGATCAATAGCAGGTGCGGCGCACCAGTCGCATCTTGATCAAGCACTTCTGTAACCCCGGACCGAGTATCAATAGACTGCTCACGCGGTTGAAGGAGAAAACGTTCGTTACCCGGCTAACTACTTCGAGAAACCCAGTAGCATCATGAAAGTTGCAGAGTGTTTCGCTCAGCACTACCCCCGTGTAGATCAGGCCGATGAGTCACCGCACTTCCCCACGGGCGACCGTGGCGGTGGCTGCGTTGGCGGCCTGCCTATGGGGCAACCCATAGGACGCTCTAATACGGACATGGTGCGAAGAGTCTATTGAGCTAGTTAGTAGTCCTCCGGCCCCTGAATGCGGCTAATCCTAACTGCGGAGCACATACCCTTAATCCAAAGGGCAGTGTGTCGTAACGGGTAACTCTGCAGCGGAACCGACTACTTTGGGTGTCCGTGTTTCCTTTTAATTTTTACTGGCTGCTTATGGTGACAATTGAGGAATTGTTGCCATATAGCTATTGGATTGGCCATCCGGTGACTAACAGAGCTATTGTGTTCCAATTTGTTGGATTTACCCCGCTCACACTCACAGTCGTAAGAACCCTTCATTACGTGTTATTTCTCAACTCAAGAAA | 5.93E+07
A73-675 (nucleic acid) DNA: TTACTCCATTCAGCTTCTTCGGAACCTGTTCGGAGGAATTAAACGGGCACCCATACTCCCCCCACCCCCCTTTTGTAACTAAGTATGTGTGCTCGTGATCTTGACTCCCACGGAACGGACCGATCCGTTGGTGAACAAACAGCTAGGTCCACATCCTCCCTTCCCCTGGGAGGGCCCCCGCCCTCCCACATCCTCCCCCCAGCCTGACGTATCACAGGCTGTGTGAAGCCCCCGCGAAAGCTGCTCACGTGGCAATTGTGGGTCCCCCCTTCATCAAGACACCAGGTCTTTCCTCCTTAAGGCTAGCCCCGGCGTGTGAATTCACGTTGGGCAACTAGTGGTGTCACTGTGCGCTCCCAATCTCGGCCGCGGAGTGCTGTTCCCCAAGCCAAACCCCTGGCCCTTCACTATGTGCCTGGCAAGCATATCTGAGAAGGTGTTCCGCTGTGGCTGCCAACCTGGTGACAGGTGCCCCAGTGTGCGTAACCTTCTTCCGTCTCCGGACGGTAGTGATTGGTTAAGATTTGGTGTAAGGTTCATGTGCCAACGCCCTGTGCGGGATGAAACCTCTACTGCCCTAGGAATGCCAGGCAGGTACCCCACCTCCGGGTGGGATCTGAGCCTGGGCTAATTGTCTACGGGTAGTTTCATTTCCAATCCTTTTATGTCGGAGTC | 1.30E+08
18-675 (nucleic acid) DNA: CCCACAGCAAGAATGCCATCATCTGTCCTCACCCCCAATTTTCCCTTTTCTTCCCCTGCAACCATTACGCTTACTCGCATGTGCATTGAGTGGTGCATGTGTTGAACAAACAGCTACACTCACATGGGGGCGGGTTTTCCCGCCCTACGGCCTCTCGCGAGGCCCACCCCTTCCCTCCCCTTATAACTACAGTGCTTTGGTAGGTAAGCATCCTGATCCCCCGCGGAAGCTGCTCACGTGGCAACTGTGGGGACCCAGACAGGTTATCAAAGGCACCCGGTCTTTCCGCCTTCAGGAGTATCCCTACTAGTGAATTCTAGCGGGGCTCTGCTTGGTGCCAACCTCCCCCAAATGCGCGCTGCGGGAGTGCTCTTCCCCAACTCACCCTAGTATCCTCTCATGTGTGTGCTTGGTCAGCATATCTGAGACGATGTTCCGCTGTCCCAGACCAGTCCAGTAATGGACGGGCCAGTGCGTGTAGTCGTCTTCCGGCTTGTCCGGGGCATGTTTGGTGAACCGGTGGGGTAAGGTTGGTGTGCCCAACGCCCGTACTTTGGTGACACCTCAAGACCACCCAGGAATGCCAGGGAGGTACCCCACCTCACGGTGGGATCTGACCCTGGGCTAATTGTCTACGGTGGTTCTTCTTGCTTCCACTTCTTTCTTCTGTTCACG | 6.04E+07
Tropivirus A (nucleic acid, Tropivirus A) DNA: TGTCGCATGTTGCCAACATCAAAATTCTGGGAGAGTCGCGAACTCCTTAACACTGCCTTGCCTCGACGGAGCCGTTGTTATAGTGTCGACGGGATACAAACATTAAACTAAACCCACTTGCCTCGACGGAACCCCTTACCTTTTATTTTATTTTATAGTATGAAAGTGAATCTTGTATGAATGTTCATAGAAAACTGCAAATGAGTACCACGTCTAACATGAGAGAATGATACTGGAGAAATCCAAGTTTAGAAGTCACTACGAATCCCAGCGGAAACAAGGGAATTCTGAGCTTCTAATAGGCGTTTAAGACTATTTGCAAAATTCTGGTGCGTAAGTGATATTTTCATTGCGTAGAACGCTGGTAACCACTCCGGCTAGTATAAGCATTGTTAGTCACTTATTATGAAACTCCACACTATCCTTTCTGGAGAAGCACACAAACTTACATGGTAAAGCTAGACCATTATCTTAAGCGGTGAGTACACTGCAACCTTGTAACAATGCTTGTATGACTACTTTTTGTATATCTTGAGCAATATTGTTGAGGTGGACATGTCCAAAGGTAATGTTGTTGGGAATGGAGGGGTCCATTTTCCCGTGCACGTAGTGTACTAGTATTGGGTGATAGCCTTGCGGCGGATCAACCATGTATTTTAATCCGTTGACTTTCAC | 9.52E+04
Kobuvirus 16317 (nucleic acid, listed as Kobuvirus sp.) DNA: TTACTCCATTCAGCTTCTTCGGAACCTGTTCGGAGGAATTAAACGGGCACCCATACACCCCCATCCCCTTTCTGCAACTTAAGTATGTGTGCTCGTGATCTTGACTCCCACGGAATGGATCGATCCGCTGGAGAACAAACTGCTAGATCCACATCCTCCCTTCCCCTGGGAGGACCTTGGTCCTCCCACATCCTCCCCCCAGCCTGACGTACCACAGGCTGTGTGAAGCCCCCGCGAAAGCTGCTCACGTGGCAATTGTGGGTCCCCCCTTCATCAAGACACCAGGTCTTTCCTCCTTAAGGCTAGCCCCGATGTGTGAATTCACATTGGGCAACTAGTGGTGTCACTGTGCGCTCCCAATCTCGGCCGCGGAGTGCTGTTCCCCAAGCCAAACCCCTGGCCCTTCACTATGTGCCTGGCAAGCATACCTGAGAAGGTGTTCCGCTGTGGCTGCCAGCCTGGTAACAGGTGCCCCAGTGTGCGTAACCTTCTTCCGTCTTCGGACGGTAGTGATTGGTTAAGATTTGGTGTAAGGTCCATGTGCCAACGCCCTGTGCGGGATGAAACCTCTACTGCCCTAGGAATGCCAGGCAGGTACCCCACCCCCGGGTGGGATCTGAGCCTGGGCTAATTGTCTACGGGTAGTTTCATTTCCAATTCTTTTATGTCGGAGTC | 2.03E+07
A105-675 (nucleic acid) DNA: CCACCCACAGCAAGAATGCCATCATCTGTCCTCACCCCCATTTCTCCCCTCCTTCCCCTGCAACCATTACGCTTACTCGCATGTGCATTGAGTGGTGCACGTGTTGAACAAACAGCTACACTCACGTGGGGGCGGGTTTTCCCGCCCTTCGGCCTCTCGCGAGGCCCACCCTTCCCCTTCCTCCCATAACTACAGTGCTTTGGTAGGTAAGCATCCTGATCCCCCGCGGAAGCTGCTCGCGTGGCAACTGTGGGGACCCAGACAGGTTATCAAAGGCACCCGGTCTTTCCGCCTCCAGGAGTATCCCTGCTAGTGAATTCTAGTGGGGCTCTGCTTGGTGCCAACCTCCCCCAAATGCGCGCTGCGGGAGTGCTCTTCCCCAACTCACCCTAGTATCCTCTCATGTGTGTGCTTGGTCAGCATATCTGAGACGATGTTCCGCTGTCCCAGACCAGTCCAGCAATGGACGGGCCAGTGTGCGTAGTCGTCTTCCGGCTTGTCCGGCGCATGTTTGGTGAACCGGTGGGGTAAGGTTGGTGTGCCCAACGCCCGTACTTTGGTGACAACTCAAGACCACCCAGGAATGCCAGGGAGGTACCCCGCCTCACGGCGGGATCTGACCCTGGGCTAATTGTCTACGGTGGTTCTTCTTGCTTCCATTTCTTTCTTCTGTTC | 2.18E+07
Posavirus 1 (nucleic acid) DNA: ACATTTCCTTGCGTGCGCACCCGAAAATTTATTGAACTTGGCTTGAATCATAAGTAATGCTTCTTATAGCGGACACTTTGAGAATATAATGCTTGTATGGATTAATGTATACTGTTTTAAATAACAAACCTAGACACGCAGTTGCGTTGATGGTTGTATCAATCACATATAAGTGTTGAACTCGTGTTAATCCTCGATCGCTATATGTTTGCCGCCTACTTCCAATAAAATAGATTACATGCGCGTCATGCCTTTGTGGGTTACCTATTGGCCTCTGACAAAAACAAGTCGTAAGATTTGTAGCTTCCCGGTGTAAAAAGCTGGGCGCGGTCTGGCTCTCGTAGGGTGGAAAGGTCCACCAATGGCTGGTTGAGTGTAAGCTCCGGTGTCCTGGTTGTCGCAATTCCAGGCGTCGTAATAACCTATATTGCATCTGACTCTAACTCTTGTGGCTCTACTGTATCTAGTTCTTGTTCTACTAACTCTAATAATACTACTGGCTCTAATACTGAAAAACTTACATATGTTAATATAGATAATATCCTTGATCCTGATATCCCTCACGTCACTGAAGTTCGCCGAAAACGAATTTCAGATCATATCATTGAATCTCAAGGATGTACTTGCTCTGAACCTACTATAACTCCTCATGCGTTTTCATTTTCTACTCTTGGC | 1.55E+06
A110-675 (nucleic acid) DNA: ACCTTTGTGCGCCTGTTTTATACCCCCTCCCCCAACTGTAACTTAGAAGTAACACACACCGATCAACAGTCAGCGTGGCACACCAGCCACGTTTTGATCAAGCACTTCTGTTACCCCGGACTGAGTATCAATAGACTGCTCACGCGGTTGAAGGAGAAAGCGTTCGTTATCCGGCCAACTACTTCGAAAAACCTAGTAACACCGTGGAAGTTGCAGAGTGTTTCGCTCAGCACTACCCCAGTGTAGATCAGGTCGATGAGTCACCGCATTCCCCACGGGCGACCGTGGCGGTGGCTGCGTTGGCGGCCTGCCCATGGGGAAACCCATGGGACGCTCTAATACAGACATGGTGCGAAGAGTCTATTGAGCTAGTTGGTAGTCCTCCGGCCCCTGAATGCGGCTAATCCTAACTGCGGAGCACACACCCTCAAGCCAGAGGGCAGTGTGTCGTAACGGGCAACTCTGCAGCGGAACCGACTACTTTGGGTGTCCGTGTTTCATTTTATTCCTATACTGGCTGCTTATGGTGACAATTGAGAGATCGTTACCATATAGCTATTGGATTGGCCATCCGGTGACTAATAGAGCTATTATATATCCCTTTGTTGGGTTTATACCACTTAGCTTGAAAGAGGTTAAAACATTACAATTCATTGTTAAGTTGAATACAGCAAA | 1.24E+08
